These results are taken from patent US20150307600A1.

For the assay, the target named is synthetic biotinylated and pegylated phospho-tau peptide RSGYSSPG(pS)PG(pT)PGSRSR-OH (human). Nature of the assay: MSD electrochemiluminescence competition on the biotinylated phospho-tau peptide (SEQ ID NO:39) coated on streptavidin plates; competitor: SULFO-TAG-labelled AT8.

“AT8 anti-tau antibody (ThermoScientific, Rockford, Ill.)”: the IC50 (read off the curve) amounted to 40 nM.
